Results reported in article PMC4158885 (The EMBO Journal, 2014).

What was measured:
[1] = target: T1, ctPan2 Δ343–375 (PID deletion in full-length ctPan2) (Chaetomium thermophilum, UniProt G0SAK8 1-1170, Δ343–375); assay: SEC; separately purified ctPan2 constructs and ctPan3 PKC dimer mixed 1:1 at 1 μM, 15 min at room temperature; Superdex 200 Increase 3.2/300 in 20 mM Tris pH 8.0, 500 mM NaCl, 2 mM TCEP; fractions on SDS–PAGE; details: both partners purified
T1 sequence (looked up): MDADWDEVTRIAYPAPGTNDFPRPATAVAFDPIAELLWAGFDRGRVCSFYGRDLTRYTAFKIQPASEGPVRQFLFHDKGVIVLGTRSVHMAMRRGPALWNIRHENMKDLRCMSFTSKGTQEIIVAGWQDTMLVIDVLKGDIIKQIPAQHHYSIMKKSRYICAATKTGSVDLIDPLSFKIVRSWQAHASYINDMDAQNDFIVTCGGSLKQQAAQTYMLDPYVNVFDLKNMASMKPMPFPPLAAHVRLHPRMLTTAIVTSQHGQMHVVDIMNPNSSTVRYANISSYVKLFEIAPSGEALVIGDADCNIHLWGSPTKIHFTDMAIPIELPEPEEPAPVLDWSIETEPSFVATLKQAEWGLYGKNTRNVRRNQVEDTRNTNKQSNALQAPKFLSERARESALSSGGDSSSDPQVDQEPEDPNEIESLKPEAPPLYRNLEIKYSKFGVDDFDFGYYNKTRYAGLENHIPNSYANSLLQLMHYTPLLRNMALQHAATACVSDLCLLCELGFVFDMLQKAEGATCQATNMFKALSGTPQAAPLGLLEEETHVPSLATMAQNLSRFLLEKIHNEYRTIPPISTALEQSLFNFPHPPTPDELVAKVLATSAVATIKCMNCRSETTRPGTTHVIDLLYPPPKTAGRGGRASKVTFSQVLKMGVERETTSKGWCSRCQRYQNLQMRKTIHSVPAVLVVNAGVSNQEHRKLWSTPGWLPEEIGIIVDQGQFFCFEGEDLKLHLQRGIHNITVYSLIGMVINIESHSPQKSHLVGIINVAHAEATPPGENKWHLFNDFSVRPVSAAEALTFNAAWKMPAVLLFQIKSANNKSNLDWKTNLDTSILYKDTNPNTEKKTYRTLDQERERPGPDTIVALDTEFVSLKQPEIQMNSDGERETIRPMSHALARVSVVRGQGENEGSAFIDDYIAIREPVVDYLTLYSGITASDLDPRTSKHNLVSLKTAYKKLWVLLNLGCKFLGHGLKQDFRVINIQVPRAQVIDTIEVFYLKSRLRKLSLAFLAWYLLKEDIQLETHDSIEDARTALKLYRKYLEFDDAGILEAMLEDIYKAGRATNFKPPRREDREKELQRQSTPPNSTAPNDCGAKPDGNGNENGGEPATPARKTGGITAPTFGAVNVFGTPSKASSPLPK

[2] = target: T2, ctPan2 Δ343–352 (PID deletion in full-length ctPan2) (Chaetomium thermophilum, UniProt G0SAK8 1-1170, Δ343–352); assay: as above; details: both partners purified
T2 sequence (looked up): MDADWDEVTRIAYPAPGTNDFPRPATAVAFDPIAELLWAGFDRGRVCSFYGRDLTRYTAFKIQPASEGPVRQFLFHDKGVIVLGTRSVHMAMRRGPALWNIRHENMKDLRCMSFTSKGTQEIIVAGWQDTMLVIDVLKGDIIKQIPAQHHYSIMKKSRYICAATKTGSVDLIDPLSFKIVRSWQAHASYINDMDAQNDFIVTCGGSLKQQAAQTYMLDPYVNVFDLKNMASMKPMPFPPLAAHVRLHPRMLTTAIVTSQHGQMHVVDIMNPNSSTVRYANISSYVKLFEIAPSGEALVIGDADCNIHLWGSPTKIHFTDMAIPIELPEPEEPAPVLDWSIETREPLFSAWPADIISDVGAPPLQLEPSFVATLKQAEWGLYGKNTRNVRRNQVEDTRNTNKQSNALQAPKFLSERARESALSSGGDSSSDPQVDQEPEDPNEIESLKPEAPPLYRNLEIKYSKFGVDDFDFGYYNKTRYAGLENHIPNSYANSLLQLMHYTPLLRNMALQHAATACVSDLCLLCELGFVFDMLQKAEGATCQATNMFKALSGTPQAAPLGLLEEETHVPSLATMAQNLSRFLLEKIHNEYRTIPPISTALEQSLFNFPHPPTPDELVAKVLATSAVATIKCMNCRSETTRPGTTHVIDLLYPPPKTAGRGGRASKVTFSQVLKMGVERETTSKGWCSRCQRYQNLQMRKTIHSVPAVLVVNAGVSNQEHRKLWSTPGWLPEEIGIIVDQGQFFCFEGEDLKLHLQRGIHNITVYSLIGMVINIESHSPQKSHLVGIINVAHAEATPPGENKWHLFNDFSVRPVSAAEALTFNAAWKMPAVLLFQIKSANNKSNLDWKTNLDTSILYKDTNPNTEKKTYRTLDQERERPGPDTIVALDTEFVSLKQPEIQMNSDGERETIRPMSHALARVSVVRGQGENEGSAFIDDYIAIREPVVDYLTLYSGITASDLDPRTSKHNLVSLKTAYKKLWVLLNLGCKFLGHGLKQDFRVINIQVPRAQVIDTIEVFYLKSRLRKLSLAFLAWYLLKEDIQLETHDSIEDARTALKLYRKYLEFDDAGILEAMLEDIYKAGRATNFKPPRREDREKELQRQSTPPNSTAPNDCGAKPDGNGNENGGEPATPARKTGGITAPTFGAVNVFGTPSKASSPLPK

- binding result [1]: binds
- binding result [2]: binds
B1: ctPan3 pseudokinase/C-terminal domain (PKC, residues 205–640), purified from E. coli (domain or fragment, Chaetomium thermophilum, UniProt G0S0Y3 205-640, looked up)
chain: RQELQPWQRATYDFFMPQNLREDLQKKQFATLQVIPNSGLPQLEHWHSLVPLDTSNRKNTSCFGYPSWVYKAQNSRNGRHYALRRLEGYRLTNEKAILNVMKDWKKIKNASIVTIHEVFTTREFGDSSLIFAYDFHPLSKTLQEHHFQPIHGNRYRPPPAVPENTIWGYICQIANALKTIHSNRLAARCLEPSKIILTDINRIRLSACAILDVVQFGMNSRSVVELQQEDFVKFGKLILSLATGTLPAHLNNIPAALETLGNKYSANLKSAVNWLLDTSSGETKTIEHFMTGIASQMTTFFDLALQDNDEKLFHLAREVENGRIARSLMKLLTILERGDYDGVPSWSETGDRYQLKLFRDYVFHRVDADGKPNLSIGHMLTCMSKLEAGVDENILLTSRDNETVFVLSYRELRQMYDRAFNELVKASKTGAPGANT
notes: Pan3, Chaetomium thermophilum, pseudokinase (242-497), coiled coil (499-538) and C-terminal domain (555-640), construct residues 205-640; The crystals of ctPan3 PKC alone (PDB 4CYI) were of Se-Met-labelled protein; also called ctPan3 PKC; ctPan3 PKC dimer; source: E. coli, purified (glutathione Sepharose)
